The chains are these.
B1: Azoarcus group I ribozyme (parent)
chain: GUGCCUUGCGCCGGGAAACCACGCAAGGGAUGGUGUCAAAUUCGGCGAAACCUAAGCGCCCGCCCGGGCGUAUGGCAACGCCGAGCCAAGCUUCGGCGCCUGCGCCGAUGAAGGUGUAGAGACUAGACGGCACCCACCUAAGGCAAACGCUAUGGUGAAGGCAUAGUCCAGGGAGUGGCGAAAGUCACACAAACCGG

The data set covers variants of B1. As to the kind of experiment: reverse-splicing fitness (ratio to wild type); higher = more active; in vitro selection; Mg2+ level not given. In outline: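 An in vitro group I ribozyme library with randomized positions was T7-transcribed and gel-purified. In triplicate, 10 pmol RNA in EPPS pH 7.5 was reacted with 50 pmoles of a 30-nt RNA substrate for 1 h at 37 °C across several added MgCl2 levels (1–48 mM), then stopped with EDTA. Products were reverse transcribed from a substrate-complementary primer, PCR-amplified and sequenced (HiSeq 4000). Fitness is a variant's read proportion after selection over that before, normalised to wild type.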
For C82A A120U A145U C150A C169A, the reverse-splicing fitness was found to be 0.00213. On to C82A A120U A145U C150A C169U, for which the reverse-splicing fitness turned out to be 0.00267.

C82A A120G C150U C169U: the reverse-splicing fitness came to 0.0111. With C82A A120U C150U U176C, the reverse-splicing fitness was 0.0352. As for C82A A120U C150U U176A, the figure is 0.0194. As for C82A A120U C150U U176G, the figure is 0.00609; as for C82A A120G C169U, 0.0166; as for C82A A120G C169A, 0.0152. C82A A120G C169G: the reverse-splicing fitness came out at 0.0233.

As for C82A A120U A145G C150G C169A U176G, the reverse-splicing fitness was 0.00515.

Regarding C82A A120U A145G C150G C169A U176A, the reverse-splicing fitness worked out at 0.0135. As for C82A A120U A145G C150G C169A U176C, the figure is 0.0082; as for C82A A145C C150G C169U U176C, 0.00749; as for C82A A145C C150G C169U U176G, 0.00534. C82A A145C C150G C169U U176A: the reverse-splicing fitness came to 0.00823.

Turning to C82A A120U A145C C150A, the reverse-splicing fitness turned out to be 0.00898. For the variant C82A A120U A145C C150G, the reverse-splicing fitness was 0.0172. As for C82A A120U A145C C150U, the figure is 0.0294. As for C82A A145C C150A C169A U176C, the figure is 0.00566; as for C82A A145C C150A C169A U176A, 0.0113. For C82A A145C C150A C169A U176G, the reverse-splicing fitness worked out at 0.00593. The result for C82A A145C C169A U176G reads 0.00487; that for C82A A145C C169A U176C, 0.00644. As for C82A A145C C169A U176A, the figure is 0.0087. C82A A120U A145G C150U U176C: the reverse-splicing fitness came out at 0.0478.

In the case of C82A A120U A145G C150U U176G, the reverse-splicing fitness was determined as 0.00635. Regarding C82A A120U A145G C150U U176A, the reverse-splicing fitness stood at 0.0246. On to C82A A120U C150G C169U U176C, for which the reverse-splicing fitness is 0.00369.

For the variant C82A A120U C150G C169U U176A, the reverse-splicing fitness was 0.00325. In the case of C82A A120U C150G C169U U176G, the reverse-splicing fitness was 0.00296. For the variant C82A A120U A145C C150A C169A U176A, the reverse-splicing fitness is 0.00185. As to C82A A120U A145C C150A C169A U176C, the reverse-splicing fitness stood at 0.00238.

With C82A A120U A145C C150A C169A U176G, the reverse-splicing fitness was determined as 0.00198.

In the case of C82A A120U C150G C169A U176C, the reverse-splicing fitness worked out at 0.00411. Take C82A A120U C150G C169A U176G: the reverse-splicing fitness came to 0.00312. In the case of C82A A120U C150G C169A U176A, the reverse-splicing fitness is 0.00498.

In the case of C82A A120U C150G U176A, the reverse-splicing fitness was 0.00566. In the case of C82A A120U C150G U176C, the reverse-splicing fitness is 0.00779. The result for C82A A120U C150G U176G reads 0.00281. With C82A A120U C150A C169U U176C, the reverse-splicing fitness came out at 0.00414. As to C82A A120U C150A C169U U176A, the reverse-splicing fitness came to 0.00391. With C82A A120U C150A C169U U176G, the reverse-splicing fitness came out at 0.00215. For the variant C82A A120G U176A, the reverse-splicing fitness was found to be 0.0137.

As to C82A A120G U176G, the reverse-splicing fitness amounted to 0.00511. Regarding C82A A120G U176C, the reverse-splicing fitness was found to be 0.0184. With C82A A120U U176G, the reverse-splicing fitness came out at 0.0095. Take C82A A120U U176C: the reverse-splicing fitness is 0.0627. For the variant C82A A120U U176A, the reverse-splicing fitness was 0.0313. On to C82A A120U C150A C169U, for which the reverse-splicing fitness was found to be 0.00372. For the variant C82A A120U C150A C169G, the reverse-splicing fitness turned out to be 0.00417.

With C82A A120U C150A C169A, the reverse-splicing fitness came to 0.0042. For C82A A145C, the reverse-splicing fitness amounted to 0.586. With C82A A120U A145U C150G C169U U176C, the reverse-splicing fitness came to 0.00262.

On to C82A A120U A145U C150G C169U U176G, for which the reverse-splicing fitness is 0.0021.

For the variant C82A A120U A145U C150G C169U U176A, the reverse-splicing fitness worked out at 0.0025. Turning to C82A A120U A145U C169A U176C, the reverse-splicing fitness stood at 0.00182.

With C82A A120U A145U C169A U176A, the reverse-splicing fitness came to 0.00216. On to C82A A120U A145U C169A U176G, for which the reverse-splicing fitness was 0.00177. On to C82A A120U A145C C150A U176A, for which the reverse-splicing fitness came to 0.00439. Take C82A A120U A145C C150A U176G: the reverse-splicing fitness turned out to be 0.00246. The result for C82A A120U A145C C150A U176C reads 0.0051; that for C82A A120G C150U C169U U176C, 0.0192; that for C82A A120G C150U C169U U176G, 0.0068. Consider C82A A120G C150U C169U U176A, for which the reverse-splicing fitness turned out to be 0.0231. As for C82A A120U C150U C169A U176C, the reverse-splicing fitness was determined as 0.00357. Turning to C82A A120U C150U C169A U176A, the reverse-splicing fitness was found to be 0.00392. Take C82A A120U C150U C169A U176G: the reverse-splicing fitness is 0.00226.

On to C82A A120U C150A C169G U176G, for which the reverse-splicing fitness was found to be 0.00162. In the case of C82A A120U C150A C169G U176C, the reverse-splicing fitness was 0.0032.

Regarding C82A A120U C150A C169G U176A, the reverse-splicing fitness came out at 0.00593.

In the case of C82A A120U A145C C150G C169G U176C, the reverse-splicing fitness is 0.00192. As to C82A A120U A145C C150G C169G U176A, the reverse-splicing fitness came out at 0.00256.

As to C82A A120U A145C C150G C169G U176G, the reverse-splicing fitness was found to be 0.00211. Take C82A A120U A145C C150U C169U U176C: the reverse-splicing fitness is 0.00257. Regarding C82A A120U A145C C150U C169U U176A, the reverse-splicing fitness was determined as 0.00245. Consider C82A A120U A145C C150U C169U U176G, for which the reverse-splicing fitness was determined as 0.00212. For the variant C82A A145C C169G U176A, the reverse-splicing fitness was 0.0247. With C82A A145C C169G U176C, the reverse-splicing fitness was found to be 0.0138.

In the case of C82A A120U C150A C169A U176C, the reverse-splicing fitness was 0.00234. Consider C82A A120U C150A C169A U176G, for which the reverse-splicing fitness is 0.0024. Take C82A A120U C150A C169A U176A: the reverse-splicing fitness was 0.00388.

As to C82A A120U A145C C150G C169A U176G, the reverse-splicing fitness was determined as 0.00213. In the case of C82A A120U A145C C150G C169A U176A, the reverse-splicing fitness was 0.00254. On to C82A A120U A145C C150G C169A U176C, for which the reverse-splicing fitness was found to be 0.00155.

The values above are taken from the RNAGym collection of RNA variant scans (doi:10.1093/molbev/msab373).
